Measured values as given in IntAct's records for PubMed 15772280.

B1: Cullin-3A (Arabidopsis thaliana (Mouse-ear cress)), Q9ZVH4 (parent)
chain: MSNQKKRNFQIEAFKHRVVVDPKYADKTWQILERAIHQIYNQDASGLSFEELYRNAYNMVLHKFGEKLYTGFIATMTSHLKEKSKLIEAAQGGSFLEELNKKWNEHNKALEMIRDILMYMDRTYIESTKKTHVHPMGLNLWRDNVVHFTKIHTRLLNTLLDLVQKERIGEVIDRGLMRNVIKMFMDLGESVYQEDFEKPFLDASSEFYKVESQEFIESCDCGDYLKKSEKRLTEEIERVAHYLDAKSEEKITSVVEKEMIANHMQRLVHMENSGLVNMLLNDKYEDLGRMYNLFRRVTNGLVTVRDVMTSHLREMGKQLVTDPEKSKDPVEFVQRLLDERDKYDKIINTAFGNDKTFQNALNSSFEYFINLNARSPEFISLFVDDKLRKGLKGITDVDVEVILDKVMMLFRYLQEKDVFEKYYKQHLAKRLLSGKTVSDDAERSLIVKLKTECGYQFTSKLEGMFTDMKTSEDTMRGFYGSHPELSEGPTLIVQVLTTGSWPTQPAVPCNLPAEVSVLCEKFRSYYLGTHTGRRLSWQTNMGTADIKAIFGKGQKHELNVSTFQMCVLMLFNNSDRLSYKEIEQATEIPAADLKRCLQSLACVKGKNVIKKEPMSKDIGEEDLFVVNDKFTSKFYKVKIGTVVAQKETEPEKQETRQRVEEDRKPQIEAAIVRIMKSRKILDHNNIIAEVTKQLQPRFLANPTEIKKRIESLIERDFLERDSTDRKLYRYLA
partner: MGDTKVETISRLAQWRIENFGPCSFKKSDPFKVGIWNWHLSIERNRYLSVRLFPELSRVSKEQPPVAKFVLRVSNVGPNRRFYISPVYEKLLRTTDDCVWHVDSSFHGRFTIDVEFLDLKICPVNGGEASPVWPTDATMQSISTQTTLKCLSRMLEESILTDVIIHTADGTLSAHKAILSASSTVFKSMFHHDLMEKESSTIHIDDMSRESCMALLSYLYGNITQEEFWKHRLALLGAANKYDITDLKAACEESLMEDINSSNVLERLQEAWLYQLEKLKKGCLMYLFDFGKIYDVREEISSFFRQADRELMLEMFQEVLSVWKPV
B2: BTB/POZ domain-containing protein At1g21780 (Arabidopsis thaliana (Mouse-ear cress)), Q9XHZ8 (parent)
chain: B1 partner
partner: B1 chain

Variants of: B1
Conditions: with y1178, Q9XHZ8

effect of a mutation on the interaction	Variant
decreasing interaction	F49A
decreasing interaction	S48A

Variants of: B2
Conditions: with cul3a_arath CUL3A, Q9ZVH4

effect of a mutation on the interaction	Variant
decreasing interaction	MGDTKVETISRLAQWRIENFGPCSFKKSDPFKVGIWNWHLSIERNRYLSVRLFPELSRVSKEQPPVAKFVLRVSNVGPNRRFYISPVYEKLLRTTDDCVWHVDSSFHGRFTIDVEFLDLKICPVNGGEASPVWPTDATMQSISTQTTLKCLSRMLEESILTDVIIHTADGTLSAHKAILSASSTVFKSMFHHDLMEKESSTIHRDDMSRESCMALLSYLYGNITQEEFWKHRLALLGAANKYDITDLKAACEESLMEDINSSNVLERLQEAWLYQLEKLKKGCLMYLFDFGKIYDVREEISSFFRQADRELMLEMFQEVLSVWKPV [I204R]
decreasing interaction	MGDTKVETISRLAQWRIENFGPCSFKKSDPFKVGIWNWHLSIERNRYLSVRLFPELSRVSKEQPPVAKFVLRVSNVGPNRRFYISPVYEKLLRTTDDCVWHVDSSFHGRFTIDVEFLDLKICPVNGGEASPVWPTDATMQSISTQTTLKCLSRMLEESILTDVIIHTADGTLSAHKAILSASSTVFKSMFHHDLMEKESSTIHIDDMSRESCMALLSYLYGNITQEEFWKHRLALLGAANKADITDLKAACEESLMEDINSSNVLERLQEAWLYQLEKLKKGCLMYLFDFGKIYDVREEISSFFRQADRELMLEMFQEVLSVWKPV [Y242A]
